Laboratory results: the MegaScale stability set (Tsuboyama et al. 2023)

B1: EEHEE_rd3_1049 (parent)
chain: TTVKLGDIKVTFDNPEKAKKYAQKLAKIYQLTVHVHGDTIHVK

Variants of: B1
Test: folding stability dG (cDNA display proteolysis); higher = more stable
Conditions: PBS, room temperature

Folding stability dG [kcal/mol] of substitutions, site by site:
V35: L 1.7 | E 1.56
K4: W 2.76 | Q 2.35 | E 1.6 | I 3.17 | L 2.47 | H 2.07 | F 2.4
Y29: A 0.547 | T 0.658 | R 0.806 | E 0.087 | H 1.31 | L 1.87
I40: K 0.443 | Q 0.438 | M 1.16 | L 1.66 | F 1.6
H34: F 2.39 | P -0.084 | K 1.71 | G 0.853 | Q 2.11 | L 2.06
K43: M 2.56 | T 2.48 | Q 2.16 | A 2.07 | Y 2.64 | F 2.85 | C 3.65 | N 1.58 | H 2.19
L31: P -0.519 | R 0.613 | W 1.26 | E 0.002 | Q 0.409 | S 0.893 | A 1.56 | K 0.541 | D -0.096 | M 2.18
D7: A 2.6 | K 3.17 | W 3.24 | N 2.85 | R 3.21 | V 2.52 | T 2.56
D13: I 1.96 | R 2.13 | E 1.9 | G 1.69 | Y 1.85 | V 1.89 | T 2.16 | N 1.98 | F 1.93 | A 2.11 | K 2.2 | C 2.6
H41: D 1.49 | N 1.32 | G 0.476 | T 2.23 | V 2.44 | S 1.65 | Y 2.6
A22: Y 0.937 | R 0.612 | W 1.24 | H 0.262 | I 1.48 | K 0.531 | V 1.34
T39: L 1.81 | E 1.82 | V 2.23 | M 1.96 | I 2.27
V33: K -0.112 | A 0.869 | S 0.464 | R -0.171
V10: F 2.35 | N 0.575 | S 0.658 | P 0.26 | C 2.92 | A 0.985 | K 1.72 | G 0.275 | D 0.272 | T 1.12 | L 2.08 | H 1.06 | R 1.79
G6: D 0.87 | T 0.948 | S 1.05 | E 0.771 | W 2.23 | L 1.61 | Y 1.89 | Q 1.12 | P 0.61 | M 1.55 | A 1.24 | F 2.02 | H 1.75
Y21: V 0.867 | S -0.364 | L 1.15 | A 0.651 | T 0.282 | I 0.827 | M 0.885 | D -0.407
T2: C 2.33 | Q 1.28 | G 0.901 | N 1.17 | D 1.01 | M 1.65 | L 1.51 | V 2.12 | E 1.06
K24: N 1.58 | A 1.98 | Q 1.86 | P -0.36 | I 2.28 | E 1.66 | Y 3.04 | D 1.36 | R 2.17 | M 2.65 | S 1.57
T32: Y 1.69 | Q 1.87 | H 1.6 | C 2.77 | L 1.6 | S 1.94
K20: V 1.78 | P -0.125 | N 1.66 | I 1.97 | C 2.63 | G 1.13 | F 1.8 | L 2.08 | R 2.21 | E 2.06
K17: F 1.84 | R 2.02 | N 1.91 | P 0.853 | T 2.15 | M 2.2 | A 2.39
L5: K 0.76 | R 0.884 | F 2.71 | C 3.38 | T 0.739 | Y 2.12 | D 0.531 | V 2.08
G37: I 1.04 | W 1.25 | D 1.22 | T 0.847 | M 1.22 | F 1.38
A26: D 0.078 | M 1.23 | F 1.11 | K 1.02 | H 0.547 | L 1.16
T1: M 2.14 | L 1.76 | H 1.56 | E 0.641 | D 0.651
N14: K 1.25 | R 1.26 | G 1.05 | L 1.32 | Y 1.05 | W 1.34
L25: P -0.554 | C 2.11 | H 0.021 | Q 0.293 | K 0.474
E16: Y 1.9 | D 1.96 | S 1.7 | H 1.8 | K 1.91 | G 1.54 | P 0.35 | C 2.66
H36: D 2.58 | I 2.73 | V 2.61 | S 2.19 | Q 2.34 | K 1.96 | E 2.66 | G 1.16 | P 0.039 | R 1.96
V42: E 0.303 | Y 0.874 | C 1.79 | K 0.386 | N 0.487 | L 2.83 | D 0.236 | H 0.289
I8: N 1.21 | Y 2.87 | H 2.62 | D 0.538 | Q 1.28 | R 1.94 | G 0.616
K9: L 2.39 | W 2.47 | E 2.27 | G 1.25 | F 2.24 | A 2.06 | Q 2.06 | S 2.43 | C 3.33
D38: Q 1.85 | F 1.7 | W 1.76 | I 1.6 | N 2.47 | C 2.12
F12: M 0.628 | Y 0.563 | T 0.094 | E 0.041 | N -0.055 | D -0.148 | I 0.634 | C 1.74 | K 0.115
A18: W 1.26 | P -0.013 | F 0.877 | S 0.232 | E -0.325 | K 0.046 | M 0.64 | R 0.343
T11: N 1.65 | D 1.08 | Y 2.69 | K 2.06 | A 1.48 | I 2.33 | Q 1.88 | M 2.15
Q30: K 2.2 | L 1.48 | G 3.23 | A 1.89 | E 1.62 | T 1.34 | I 1.28 | W 1.71 | V 1.24 | P 0.614
V3: H 0.671 | Y 0.622 | E 0.57 | R 0.673 | A 0.626 | C 2.3 | W 0.663 | Q 0.609 | M 0.732
I28: H 1.64 | P -0.832 | S 1.05 | Y 2.14 | R 2.4 | F 2.02 | N 1.01 | K 2.48 | Q 1.88
P15: A 2.09 | S 1.59 | T 1.4 | Y 2.53 | F 3.11 | W 2.47 | G 1.3
Q23: Y 2.29 | P -0.329 | K 1.87 | R 1.94 | I 2.03 | F 2.14
K19: M 3.54 | G 0.985 | S 1.49 | F 2.93 | I 2.54 | N 1.64 | D 0.873 | W 3.16 | L 3.31
K27: S 1.83 | Y 2.13 | W 2.05 | D 1.79 | F 2.1 | L 2.1 | G 1.37 | M 2.01 | N 1.65 | T 1.75 | Q 1.94
